T1: MPDZ_10, O75970
T1 sequence (O75970 1624-1722, limits assumed, looked up): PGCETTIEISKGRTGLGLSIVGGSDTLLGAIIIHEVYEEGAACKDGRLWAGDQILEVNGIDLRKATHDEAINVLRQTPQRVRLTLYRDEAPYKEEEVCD

T2: MPP2, Q14168
T2 sequence (Q14168 180-250, limits assumed, looked up): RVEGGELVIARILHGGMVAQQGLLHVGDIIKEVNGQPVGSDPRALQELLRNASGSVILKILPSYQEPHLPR

T3: APBA2_2, Q99767
T3 sequence (Q99767 654-744, limits assumed, looked up): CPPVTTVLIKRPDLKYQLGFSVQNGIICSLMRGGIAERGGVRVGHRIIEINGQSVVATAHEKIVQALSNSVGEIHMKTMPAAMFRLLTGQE

T4: LIN7A, O14910
T4 sequence (O14910 103-200, limits assumed, looked up): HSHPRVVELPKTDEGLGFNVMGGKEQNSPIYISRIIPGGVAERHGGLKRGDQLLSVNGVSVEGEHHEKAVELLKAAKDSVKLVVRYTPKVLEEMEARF

T5: NHERF3_4, Q5T2W1
T5 sequence (Q5T2W1 373-468, limits assumed, looked up): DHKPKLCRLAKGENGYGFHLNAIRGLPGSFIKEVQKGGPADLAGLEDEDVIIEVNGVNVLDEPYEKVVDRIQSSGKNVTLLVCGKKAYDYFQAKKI

T6: PCLO, Q9Y6V0
T6 sequence (Q9Y6V0 4491-4600, limits assumed, looked up): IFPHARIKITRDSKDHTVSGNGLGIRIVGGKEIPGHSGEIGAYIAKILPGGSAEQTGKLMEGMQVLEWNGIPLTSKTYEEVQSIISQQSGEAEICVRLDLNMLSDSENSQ

T7: TX1BP3, O14907
T7 sequence (O14907 10-122, limits assumed, looked up): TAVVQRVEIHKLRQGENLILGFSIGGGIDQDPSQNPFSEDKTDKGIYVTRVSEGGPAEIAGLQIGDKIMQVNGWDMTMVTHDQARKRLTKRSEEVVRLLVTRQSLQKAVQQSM

T8: LNX2_2, Q8N448
T8 sequence (Q8N448 334-432, limits assumed, looked up): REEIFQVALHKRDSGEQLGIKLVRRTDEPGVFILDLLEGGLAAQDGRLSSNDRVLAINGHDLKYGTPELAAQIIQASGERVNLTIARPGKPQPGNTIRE

T9: DFNB31_2, Q9P202
T9 sequence (Q9P202 274-371, limits assumed, looked up): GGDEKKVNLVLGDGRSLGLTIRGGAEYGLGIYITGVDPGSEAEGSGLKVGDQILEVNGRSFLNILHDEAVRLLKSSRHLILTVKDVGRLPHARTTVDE

T10: HTRA4, P83105
T10 sequence (P83105 378-476, limits assumed, looked up): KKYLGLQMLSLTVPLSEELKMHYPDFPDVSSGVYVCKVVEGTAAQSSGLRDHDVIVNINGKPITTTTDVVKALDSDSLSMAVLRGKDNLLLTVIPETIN

T11: GRIP1_7, Q9Y3R0
T11 sequence (Q9Y3R0 999-1096, limits assumed, looked up): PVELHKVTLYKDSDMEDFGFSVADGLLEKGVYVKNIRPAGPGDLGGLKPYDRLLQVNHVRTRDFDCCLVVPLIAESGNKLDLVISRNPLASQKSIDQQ

T12: RADIL, Q96JH8
T12 sequence (Q96JH8 971-1071, limits assumed, looked up): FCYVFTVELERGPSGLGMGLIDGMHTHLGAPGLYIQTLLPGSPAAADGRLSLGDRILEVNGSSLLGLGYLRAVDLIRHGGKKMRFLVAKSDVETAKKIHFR


Legend:
Assay in all cases: holdup assay
Set-up in all cases: key: below the threshold = too weak to quantify, mostly under pKd 3.1 to 4
Details in all cases: plain residues with an end cap or a label only (N-terminal biotin on a linker: ado-ado)
MPDZ_10, O75970 = target: T1, MPDZ_10, O75970
FRMPD2_2, Q68DX3 = target: FRMPD2_2, Q68DX3
IL16_3, Q14005 = target: IL16_3, Q14005
MPP2, Q14168 = target: T2, MPP2, Q14168
TJP2_1, Q9UDY2 = target: TJP2_1, Q9UDY2
Inadl_10, Q8NI35 = target: Inadl_10, Q8NI35
APBA2_2, Q99767 = target: T3, APBA2_2, Q99767
Inadl_9, Q8NI35 = target: Inadl_9, Q8NI35
LIN7A, O14910 = target: T4, LIN7A, O14910
MAGI1_2, Q96QZ7 = target: MAGI1_2, Q96QZ7
NHERF3_4, Q5T2W1 = target: T5, NHERF3_4, Q5T2W1
PCLO, Q9Y6V0 = target: T6, PCLO, Q9Y6V0
LNX1_3, Q8TBB1 = target: LNX1_3, Q8TBB1
Inadl_5, Q8NI35 = target: Inadl_5, Q8NI35
MAGI1_1, Q96QZ7 = target: MAGI1_1, Q96QZ7
TX1BP3, O14907 = target: T7, TX1BP3, O14907
LNX2_2, Q8N448 = target: T8, LNX2_2, Q8N448
DFNB31_2, Q9P202 = target: T9, DFNB31_2, Q9P202
HTRA4, P83105 = target: T10, HTRA4, P83105
ARHGEF12, Q9NZN5-2 = target: ARHGEF12, Q9NZN5-2
GRIP1_7, Q9Y3R0 = target: T11, GRIP1_7, Q9Y3R0
FRMPD2_3, Q68DX3 = target: FRMPD2_3, Q68DX3
Inadl_8, Q8NI35 = target: Inadl_8, Q8NI35
MAGI3_2, Q5TCQ9 = target: MAGI3_2, Q5TCQ9
RADIL, Q96JH8 = target: T12, RADIL, Q96JH8
TJP1_2, Q07157 = target: TJP1_2, Q07157
Chain of TJP1_2, Q07157 (Q07157 181-274): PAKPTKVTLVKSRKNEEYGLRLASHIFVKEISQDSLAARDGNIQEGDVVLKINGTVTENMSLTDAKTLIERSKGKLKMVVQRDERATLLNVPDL

Chain of MAGI3_2, Q5TCQ9 (Q5TCQ9 398-503): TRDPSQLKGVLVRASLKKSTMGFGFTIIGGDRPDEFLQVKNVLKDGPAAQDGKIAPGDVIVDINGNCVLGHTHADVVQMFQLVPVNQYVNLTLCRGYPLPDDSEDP
Chain of FRMPD2_3, Q68DX3 (Q68DX3 1073-1166): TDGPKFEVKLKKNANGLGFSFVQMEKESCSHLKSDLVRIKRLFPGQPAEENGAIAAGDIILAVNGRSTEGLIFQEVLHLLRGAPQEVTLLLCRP
Chain of LNX1_3, Q8TBB1 (Q8TBB1 500-596): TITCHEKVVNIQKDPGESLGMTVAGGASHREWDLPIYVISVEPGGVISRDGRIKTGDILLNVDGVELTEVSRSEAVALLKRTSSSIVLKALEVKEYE
Chain of FRMPD2_2, Q68DX3 (Q68DX3 944-1038): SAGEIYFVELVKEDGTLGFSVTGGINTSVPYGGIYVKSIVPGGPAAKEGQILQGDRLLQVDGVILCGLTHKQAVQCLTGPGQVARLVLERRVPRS
Chain of TJP2_1, Q9UDY2 (Q9UDY2 24-128): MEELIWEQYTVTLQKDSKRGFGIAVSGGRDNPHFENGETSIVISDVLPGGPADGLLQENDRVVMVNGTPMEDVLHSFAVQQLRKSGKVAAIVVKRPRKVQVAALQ
Chain of Inadl_9, Q8NI35 (Q8NI35 1530-1615): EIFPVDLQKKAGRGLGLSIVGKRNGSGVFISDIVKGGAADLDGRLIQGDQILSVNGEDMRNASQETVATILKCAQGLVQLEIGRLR
Chain of IL16_3, Q14005 (Q14005 1107-1207): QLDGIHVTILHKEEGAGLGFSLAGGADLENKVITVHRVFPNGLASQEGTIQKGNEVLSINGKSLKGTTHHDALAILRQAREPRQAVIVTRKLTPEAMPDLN
Chain of MAGI1_1, Q96QZ7 (Q96QZ7 1-106): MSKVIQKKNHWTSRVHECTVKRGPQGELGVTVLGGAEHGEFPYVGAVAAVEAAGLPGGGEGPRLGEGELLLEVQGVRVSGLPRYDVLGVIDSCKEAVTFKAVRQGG
Chain of Inadl_8, Q8NI35 (Q8NI35 1425-1530): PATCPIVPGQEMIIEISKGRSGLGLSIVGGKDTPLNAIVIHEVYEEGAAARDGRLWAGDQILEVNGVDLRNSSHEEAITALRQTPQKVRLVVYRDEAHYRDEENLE
Chain of ARHGEF12, Q9NZN5-2 (Q9NZN5 other isoform, or with tags, fused parts or gaps): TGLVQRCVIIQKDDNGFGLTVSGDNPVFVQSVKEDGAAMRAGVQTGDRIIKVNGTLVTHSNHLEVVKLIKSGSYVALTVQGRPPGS
Chain of Inadl_10, Q8NI35 (Q8NI35 1673-1763): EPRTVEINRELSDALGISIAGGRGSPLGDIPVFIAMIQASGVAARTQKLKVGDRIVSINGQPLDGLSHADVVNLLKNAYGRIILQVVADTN
Chain of MAGI1_2, Q96QZ7 (Q96QZ7 456-580): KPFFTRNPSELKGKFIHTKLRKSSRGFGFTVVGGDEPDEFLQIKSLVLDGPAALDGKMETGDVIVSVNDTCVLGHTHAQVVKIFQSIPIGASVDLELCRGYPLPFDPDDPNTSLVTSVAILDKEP
Chain of Inadl_5, Q8NI35 (Q8NI35 673-780): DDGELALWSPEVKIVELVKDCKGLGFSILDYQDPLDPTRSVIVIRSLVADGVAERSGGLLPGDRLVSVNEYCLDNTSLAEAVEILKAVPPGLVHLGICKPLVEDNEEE

Row | pKd (MPDZ_10, O75970) | pKd (FRMPD2_2, Q68DX3) | pKd (IL16_3, Q14005) | pKd (MPP2, Q14168) | pKd (TJP2_1, Q9UDY2) | pKd (Inadl_10, Q8NI35) | pKd (APBA2_2, Q99767) | pKd (Inadl_9, Q8NI35) | pKd (LIN7A, O14910) | pKd (MAGI1_2, Q96QZ7) | pKd (NHERF3_4, Q5T2W1) | pKd (PCLO, Q9Y6V0) | pKd (LNX1_3, Q8TBB1) | pKd (Inadl_5, Q8NI35) | pKd (MAGI1_1, Q96QZ7) | pKd (TX1BP3, O14907) | pKd (LNX2_2, Q8N448) | pKd (DFNB31_2, Q9P202) | pKd (HTRA4, P83105) | pKd (ARHGEF12, Q9NZN5-2) | Binder | also measured
1 | below the threshold | 4.11 | below the threshold | below the threshold | below the threshold | below the threshold | below the threshold | below the threshold | below the threshold | below the threshold | below the threshold | below the threshold | below the threshold | below the threshold | below the threshold | 4.12 | 4.22 | below the threshold | below the threshold | 3.87 | EPAKETTTNV [SLC2A3, P11169] | pKd (GRIP1_7, Q9Y3R0): below the threshold; pKd (FRMPD2_3, Q68DX3): below the threshold; pKd (Inadl_8, Q8NI35): 3.59; pKd (MAGI3_2, Q5TCQ9): below the threshold; pKd (RADIL, Q96JH8): 3.62; pKd (TJP1_2, Q07157): below the threshold
2 | below the threshold | below the threshold | below the threshold | below the threshold | below the threshold | below the threshold | below the threshold | below the threshold | below the threshold | below the threshold | below the threshold | below the threshold | below the threshold | below the threshold | below the threshold | below the threshold | below the threshold | below the threshold | below the threshold | below the threshold | GNDPDRGTSI [GRID2, O43424] | pKd (GRIP1_7, Q9Y3R0): below the threshold; pKd (FRMPD2_3, Q68DX3): below the threshold; pKd (Inadl_8, Q8NI35): below the threshold; pKd (MAGI3_2, Q5TCQ9): below the threshold; pKd (RADIL, Q96JH8): below the threshold; pKd (TJP1_2, Q07157): below the threshold
3 | below the threshold | below the threshold | below the threshold | below the threshold | below the threshold | below the threshold | below the threshold | below the threshold | below the threshold | below the threshold | below the threshold | below the threshold | below the threshold | below the threshold | below the threshold | below the threshold | 4.7 | below the threshold | 3.79 | below the threshold | DFKHTKSFII [JAM2, P57087] | pKd (GRIP1_7, Q9Y3R0): below the threshold; pKd (FRMPD2_3, Q68DX3): below the threshold; pKd (Inadl_8, Q8NI35): below the threshold; pKd (MAGI3_2, Q5TCQ9): below the threshold; pKd (RADIL, Q96JH8): 4.21; pKd (TJP1_2, Q07157): below the threshold
4 | below the threshold | below the threshold | below the threshold | below the threshold | below the threshold | below the threshold | below the threshold | below the threshold | below the threshold | below the threshold | below the threshold | below the threshold | below the threshold | below the threshold | below the threshold | 3.54 | below the threshold | below the threshold | below the threshold | below the threshold | PGKKPEDSRV [SLCO2B1, O94956] | pKd (GRIP1_7, Q9Y3R0): below the threshold; pKd (FRMPD2_3, Q68DX3): below the threshold; pKd (Inadl_8, Q8NI35): below the threshold; pKd (MAGI3_2, Q5TCQ9): 3.54; pKd (RADIL, Q96JH8): below the threshold; pKd (TJP1_2, Q07157): below the threshold
5 | below the threshold | below the threshold | below the threshold | below the threshold | 4.82 | 3.54 | below the threshold | 3.85 | below the threshold | below the threshold | 3.52 | below the threshold | below the threshold | 3.55 | below the threshold | below the threshold | 5.42 | below the threshold | 4.64 | 3.61 | SGDGKTSVWI [GJC1, P36383] | pKd (GRIP1_7, Q9Y3R0): below the threshold; pKd (FRMPD2_3, Q68DX3): below the threshold; pKd (Inadl_8, Q8NI35): below the threshold; pKd (MAGI3_2, Q5TCQ9): below the threshold; pKd (RADIL, Q96JH8): 4.13; pKd (TJP1_2, Q07157): 5
